Test results reported in patent US20190142902A1 (RELAXERA PHARMAZEUTISCHE GESELLSCHAFT MBH, published 2019).

Target: T1, human relaxin receptor RXFP1 (relaxin family peptide receptor 1) (human, UniProt Q9HBX9 1-757)
T1 sequence (looked up): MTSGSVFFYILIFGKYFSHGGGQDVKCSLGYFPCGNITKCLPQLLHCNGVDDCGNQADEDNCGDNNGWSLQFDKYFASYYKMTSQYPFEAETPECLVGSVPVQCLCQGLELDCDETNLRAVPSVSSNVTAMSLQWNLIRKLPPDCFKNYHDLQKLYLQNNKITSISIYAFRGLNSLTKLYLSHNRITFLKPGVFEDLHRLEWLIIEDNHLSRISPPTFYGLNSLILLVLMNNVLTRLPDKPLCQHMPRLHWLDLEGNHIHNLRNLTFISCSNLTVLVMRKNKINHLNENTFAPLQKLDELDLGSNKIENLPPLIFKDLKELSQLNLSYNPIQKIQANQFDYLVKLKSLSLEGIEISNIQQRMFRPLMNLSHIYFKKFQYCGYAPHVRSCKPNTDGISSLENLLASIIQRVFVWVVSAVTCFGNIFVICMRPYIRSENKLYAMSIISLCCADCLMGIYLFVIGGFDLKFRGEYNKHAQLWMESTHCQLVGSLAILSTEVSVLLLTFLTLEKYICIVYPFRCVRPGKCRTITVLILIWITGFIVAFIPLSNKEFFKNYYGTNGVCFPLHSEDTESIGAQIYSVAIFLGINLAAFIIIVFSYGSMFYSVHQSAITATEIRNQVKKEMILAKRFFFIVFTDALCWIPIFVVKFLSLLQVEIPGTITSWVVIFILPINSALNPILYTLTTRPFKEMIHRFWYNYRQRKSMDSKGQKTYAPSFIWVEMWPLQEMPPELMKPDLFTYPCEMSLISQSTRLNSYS
Experiment: cell-based or functional assay

B1: -Asp-shRlx, single aa degradation product of synthetic human relaxin-2 (ligand)
chain 1: ELYSALANKCCHVGCTKRSLARFC
chain 2: SWMEEVIKLCGRELVRAQIAICGMSTWS
modifications: pGlu (pyroglutamate) at position 1
cAMP response pEC50 (cAMP reporter gene assay, HEK293T cells overexpressing RXFP1): 10.2 pEC50 (negative decadic logarithm of the half-maximum concentration)
